We go through 7 molecules from patent US20250250357A1 (NANJING ZAIMING PHARMACEUTICAL, published 2025).

Changes are numbered by the printed parent chain.

The labels stand for the following.
T1: monkey MSLN full-length protein (NCBI: XP_028696439.1) expressed on HEK293T-monkey MSLN cells (monkey)
T1 construct: Whole encoded precursor
T1 chain: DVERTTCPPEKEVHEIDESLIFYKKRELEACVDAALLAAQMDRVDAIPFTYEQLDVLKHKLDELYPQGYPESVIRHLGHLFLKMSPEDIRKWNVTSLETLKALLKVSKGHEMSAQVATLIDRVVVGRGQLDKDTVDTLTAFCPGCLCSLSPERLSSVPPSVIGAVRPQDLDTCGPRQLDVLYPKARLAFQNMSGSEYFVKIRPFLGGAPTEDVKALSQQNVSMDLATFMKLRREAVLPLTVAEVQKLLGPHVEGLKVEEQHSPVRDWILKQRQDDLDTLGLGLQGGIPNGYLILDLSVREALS

B1: S009-F8-22.23 (antibody, human IgG1, kappa, V domains shown)
VH: QVQLKQSGPGLVQPSQSLSITCTVSGFSLFSYGVHWVRQSPGKGLEWLGVIWSGGSTDYNAAFISRLSISKDNSKSQVFFKMNSLQADDTAMYYCARNGGSMITTLYYAMDYWGQGTSVTVSS
VL: DVVMTQTPLSLPVSLGDQASISCRSSQSLVHSYGNTYLHWYLQKPGQSPKLLIYKVSNRFSGVPDRFSGSGSGTDFTLKISRVEAEDLGVYFCSQSTHIPFTFGGGTKLEIKR
notes: human-murine chimeric antibody, human IgG1/kappa constant regions
B2: S009-F8-33.12 (antibody, human IgG1, kappa, V domains shown)
VH: EVQLQQSGAELVKPGASVKLSCTASAFNIKDYYMHWVKQRTEQGLEWIGRIDPEDGETKYAPKFQGKATITADTSSNTAYLQLSSLTSEDTAVYYCASGSGTGAMDYWGQGTSVTVSS
VL: DIVMTQSQKFMSTSVGDRVSITCKASQNVRTAVGWYQQKPGQSPKALIYLASNRHTGVPDRFTGSGSGTDFTLTISNVQSEDLADYFCLQHWNSPYTFGGGTKLVIKR
notes: as for B1
B3: S009-F8-28.23 (antibody, human IgG1, kappa, V domains shown)
VH: EVQLVESGGDLVKPGGSLKLSCAASGFTFSSYAMSWVRQTPEKRLEWVATISDGGSYTYYPDNVEGRFTISRDNAKNNLYLQMSHLKSEDTAMYYCAGDRGYSYALDYWGQGTSVTVSS
VL: NIMMTQSPSSLAVSAGEKVTMSCKSSQSVLYSSNQKNYLAWYQQKPGQSPKLLIYWASTRESGVPDRFTGSGSGTDFTLTISSVQAEDLAVYYCHQYLSSLTFGAGTKLELKR
notes: as for B1
B4: S009-F4-127.10 (antibody, human IgG1, kappa, V domains shown)
VH: EVQLQQSGPVLVKPGASVKMSCKASGYTFTDYYMNWVKQSHGKSPEWIGVINPYNDVISYNQKFKGKATLTVDKSSSTAYMELNSLTSEDSAVYYCANYGSSYYAMDYWGQGTSVTVSS
VL: B1 VL with P12S, Y33N, H39Q, Y41S, K50N, S96T, I99V, K112R
notes: as for B1
B5: S009-F5-9.16 (antibody, human IgG1, kappa, V domains shown)
VH: EVQLRQSGPVLVKPGASVKMSCKASGYTFTDYFMNWVKPSHGKSLEWIGVINPSNGVINYNQRFKGKATLTVDKSSSTAYMELNSLTSEDSAVYYCARSYDFAWFAYWGQGTLVTVSA
VL: DVLMTQTPLSLPVSLGDQASISCRSSQNIVHSNGNTYLEWYLQKPGQSPKLLIYTVSNRFSGVPDRFSGSGSGTDFTLKISRVEAEDLGVYYCFQGSHVPYTFGGGTKLEIKR
notes: as for B1
B6: S009-F6-76.1 (antibody, human IgG1, kappa, V domains shown)
VH: QVQLQQSGPELVKPGASVKISCKASGYTFTDYYINWVKQRPGQGLEWIGWIFPGRGSTFYYEKFKGKATLTVDKSSSTAYMLLSSLTSEDSAVYFCARRGDSAGYEDLDYWGQGTSVTVSS
VL: NIVMTQSPKFMSMSVGERVTLSCKASENVVTYVSWYQQKPKQSPKLLIYGASKRYTGVPDRFTGSGSATDFTLTISSVQAEDLGDYHCGQSYSYPYTFGGGTKLEIKR
notes: as for B1
B7: S009-F6-62.5 (antibody, human IgG1, kappa, V domains shown)
VH: QVQLQQPGTELVKPGASVKLSCRASGYTFTAYWMHWVKQRPGQGLEWIGNINPSNGGTDFNEKFKSKATLTVDKSSSTAYMQLSSLTSEDSAVYYCARGRGYFDVWGTGTTVTVSS
VL: DILLTQSPAILSVSPGERVSFSCRASKNIGTSIHWYQQRTNGSPRLLIKYASESISGIPSRFSGSGSGTDFTLNINSVESEDIADYYCQQSNSWPTLTFGAGTKLELKR
notes: as for B1

T2 sequence (Q13421 other isoform, or with tags, fused parts or gaps): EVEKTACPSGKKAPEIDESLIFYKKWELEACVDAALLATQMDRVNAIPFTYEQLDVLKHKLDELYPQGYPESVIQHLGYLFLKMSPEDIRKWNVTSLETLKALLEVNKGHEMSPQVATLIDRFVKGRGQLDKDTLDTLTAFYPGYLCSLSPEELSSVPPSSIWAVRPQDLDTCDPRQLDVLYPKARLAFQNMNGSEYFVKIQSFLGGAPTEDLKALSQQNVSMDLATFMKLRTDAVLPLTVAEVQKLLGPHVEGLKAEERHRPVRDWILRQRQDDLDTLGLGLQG
T6 sequence (Q13421 other isoform, or with tags, fused parts or gaps limits assumed): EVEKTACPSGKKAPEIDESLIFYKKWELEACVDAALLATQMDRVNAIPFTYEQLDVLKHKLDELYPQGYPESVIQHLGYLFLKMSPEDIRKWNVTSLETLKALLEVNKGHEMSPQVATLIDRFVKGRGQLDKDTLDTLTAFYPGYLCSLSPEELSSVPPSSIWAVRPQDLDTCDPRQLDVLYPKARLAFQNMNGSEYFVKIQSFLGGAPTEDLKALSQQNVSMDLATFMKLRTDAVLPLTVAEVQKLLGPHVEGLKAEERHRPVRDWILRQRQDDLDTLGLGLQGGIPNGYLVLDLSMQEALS

One assay concerns the target T2, human MSLN-FL-his protein (human, UniProt Q13421 296-580).
T2 construct: made in HEK293E cells, purified on nickel column; also called hMSLN-FL-his; human MSLN full-length protein; not shown: His tag
Kind of assay: competitive ELISA; row F8-28.23.
For the molecule B1, the competition rate came to 100%.

Regarding B2, the competition rate amounted to 102%.

As to B3, the competition rate worked out at 73.4%.

The target in a further assay is T2, human MSLN-FL-his protein. Kind of assay: competitive ELISA; row F8-33.12.
Procedure: (§1) In order to identify antigen-binding sites of antibodies, MSLN chimeric antibodies were grouped using competitive ELISA.
(§2) The chimeric antibodies were diluted to 2 μg/mL with PBS and allowed to coat 96-well high-adsorption ELISA plates at 50 μL/well. After the plates were coated at 4° C. overnight, 250 μL of a blocking buffer (PBS containing 2% (w/w) BSA) was added for two hours of blocking at room temperature. 40 μg/mL of the antibodies to be tested were added, and then the human MSLN-FL-His protein with an EC₈₀ concentration corresponding to each of the antibodies to be tested was added for incubation for 2 h. The plates were washed 5 times with PBS, an HRP-labeled anti-His secondary antibody (purchased from Genescript, Cat. No. A00612) was then added for incubation for 1 h, and the plates were washed 5 times again. A TMB substrate was added at 50 μL/well, and after 10 minutes of incubation at room temperature, a stop solution (1.0 M HCl) was added at 50 μL/well. OD₄₅₀ nm values were read using an ELISA plate reader (Insight, purchased from PerkinElmer), and the competition rate between the antibodies was calculated according to the OD₄₅₀ nm values using a formula.
As for B1, the competition rate was found to be 60.3%.

Turning to B2, the competition rate came out at 62.8%.

B3: the competition rate was determined as 10%.

In the next assay the target is T2, human MSLN-FL-his protein. Put plainly: competitive ELISA; row F8-9.16.
Procedure: as §1, §2
On to B1, for which the competition rate is -158%.

With B2, the competition rate is -89.6%.

For B3, the competition rate was -39.8%.

The next assay deals with T2, human MSLN-FL-his protein. Kind of assay: competitive ELISA; row Tab142.
Procedure: as §1, §2
In the case of B1, the competition rate came out at 46.4%.

As for B2, the competition rate was determined as 47.9%.

Take B3: the competition rate was found to be 9.8%.

The next assay deals with T2, human MSLN-FL-his protein. Put plainly: competitive ELISA; row Tab021.
Procedure: as §1, §2
As for B1, the competition rate was found to be 11.4%.

For B2, the competition rate worked out at 9.4%.

On to B3, for which the competition rate was determined as 7.7%.

The target in a further assay is T3, human MSLN-R3 protein expressed on HEK293T cells (HEK293T-hMSLN-R3) (human, UniProt Q13421 487-606).
T3 construct: C-terminal limit uncertain
T3 sequence (Q13421 495-614): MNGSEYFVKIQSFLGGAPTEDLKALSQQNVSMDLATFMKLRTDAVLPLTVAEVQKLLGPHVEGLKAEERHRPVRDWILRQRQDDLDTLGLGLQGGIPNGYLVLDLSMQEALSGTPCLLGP
Put plainly: FACS on HEK293T-hMSLN-R3 cells.
Procedure: (§3) The desired cells were expanded to the logarithmic growth phase in a T-75 cell culture flask. […] After the cells from the previous step were subjected to cell counting, the cell pellet was resuspended to 2×10⁶ cells/mL in a blocking buffer of [PBS+2% (w/w) BSA] and added into a 96-well FACS reaction plate at 50 μL/well. A chimeric antibody (a sample to be tested) was added at 50 μL/well, and the plate was incubated on ice for 2 h. […] After the plate was centrifuged and washed 5 times with a PBST buffer, assay and analysis were performed by FACS (FACS CantoII, purchased from BD). Data analysis was performed by software (Flowjo) to obtain the mean fluorescence intensity (MFI) of the cells.
With B1, the “Maximum mean fluorescence intensity” value is 404.

B2: the “Maximum mean fluorescence intensity” value was 64 and the binding result is “no binding”.

B3: the “Maximum mean fluorescence intensity” value was found to be 51 and the binding result was “no binding”.

In another assay the target is T2, human MSLN-FL-his protein. Kind of assay: competitive ELISA; row F8-22.23.
Procedure: as §1, §2
On to B1, for which the competition rate is 95.7%.

As for B2, the competition rate amounted to 96.6%.

Turning to B3, the competition rate worked out at 38.6%.

The target of a further assay is T4, human MSLN protein endogenously expressed on OVCAR3 tumor cells (human, UniProt Q13421 296-598).
T4 construct: whole, on cells; endogenous expression on a tumor cell line; also called human mesothelin
Put plainly: FACS on OVCAR3 cells.
T4 sequence (Q13421 other isoform, or with tags, fused parts or gaps): as the sequence (Q13421 other isoform, or with tags, fused parts or gaps limits assumed) above, with P14R counted along it
As for B1, a half-maximal effect (EC50) was put at 12.8 nM and the “Maximum mean fluorescence intensity” value amounted to 5500.

On to B2, for which it took 28.4 nM to reach a half-maximal effect (EC50) and the “Maximum mean fluorescence intensity” value amounted to 2410.

With B3, the 50% effective concentration (EC50) is 59.8 nM and the “Maximum mean fluorescence intensity” value came out at 1290.

Another assay deals with T2, human MSLN-FL-his protein. Kind of assay: competitive ELISA; row F8-32.3.
Procedure: as §1, §2
As for B1, the competition rate is 85.4%.

For B2, the competition rate came out at 84.9%.

Turning to B3, the competition rate is 22.9%.

The target of another assay is T2, human MSLN-FL-his protein. Put plainly: competitive ELISA; row F8-36.12.
Procedure: as §1, §2
With B1, the competition rate is -156%.

In the case of B2, the competition rate was -134%.

As for B3, the competition rate is -79.5%.

The next assay addresses T2, human MSLN-FL-his protein. Kind of assay: competitive ELISA; row F8-29.1.
Procedure: as §1, §2
B1: the competition rate worked out at 70%.

On to B2, for which the competition rate was found to be 70.6%.

For B3, the competition rate is 18.8%.

In the next assay the target is T2, human MSLN-FL-his protein. Put plainly: SPR (Biacore), antibody captured on Protein A chip.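 Also: flow cell at 25 °C, antigen injected for 240 s at five concentrations from 200 nM downward, dissociation followed up to 600 s, double-referenced, fitted with Langmuir 1:1 model.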
Procedure: The flow cell was set at 25° C. The sample block was set at 16° C. Both were pretreated with the running buffer. In each cycle, first, the antibody to be tested was captured using the Protein A chip, and then a single concentration of human MSLN-FL-his protein was injected. […] The association was determined by injecting different concentrations of human MSLN-FL-his in solution for 240 s on end, wherein the flow rate was 30 μL/min, and the protein was diluted in a 1:1 dilution ratio from 200 nM (see detailed results for actual concentrations tested) to obtain 5 concentrations in total. The dissociation phase was monitored for up to 600 s and triggered by switching from the sample solution to the running buffer. The surface was regenerated by washing with 10 mM glycine solution (pH 1.5) at a flow rate of 30 μL/min for 30 s. The difference in bulk refractive index was corrected by subtracting the responses obtained from the goat anti-human Fc surface. Blank injections were also subtracted (=double reference). To calculate the apparent KD and other kinetic parameters, the Langmuir 1:1 model was used.
Take B1: the Kd stood at 6.35 nM, the koff amounted to 0.00275 s⁻¹ and the association rate constant (kon) was determined as 433000 M⁻¹ s⁻¹.

For B2, binding was characterised by a dissociation constant (Kd) of 5.77 nM, the koff was 0.0361 s⁻¹ and the kon was determined as 6.27e+06 M⁻¹ s⁻¹.

For B3, the affinity, expressed as Kd, was 44 nM; the off-rate (koff) came to 0.00843 s⁻¹; the kon stood at 192000 M⁻¹ s⁻¹.

The target in the next assay is T2, human MSLN-FL-his protein. Kind of assay: competitive ELISA; row F8-24.14.
Procedure: as §1, §2
In the case of B1, the competition rate came out at 92.4%.

Take B2: the competition rate stood at 95.5%.

B3: the competition rate was determined as 33.6%.

The target in a further assay is T5, human MSLN-R3 protein (Met487-Ser606 of NCBI AAH09272.1) expressed on HEK293T-hMSLN-R3 cells (human, UniProt Q13421 487-606).
T5 construct: also called Region3
T5 sequence (Q13421 495-614): as the sequence (Q13421 495-614) above
Kind of assay: FACS on HEK293T-hMSLN-R3 cells.
Procedure: as §3
Regarding B4, the EC50 is 1.97 nM and the “Maximum mean fluorescence intensity” value amounted to 14200.

As for B5, the EC50 is 0.35 nM and the “Maximum mean fluorescence intensity” value was 63900.

Take B6: the “Maximum mean fluorescence intensity” value was 135 and the binding result was “no binding”.

On to B7, for which the “Maximum mean fluorescence intensity” value was 186 and the binding result was “no binding”.

A further assay has as its target T6, human MSLN full-length protein (NCBI: AAH09272.1) expressed on HEK293T-hMSLN-B8 cells (human, UniProt Q13421 296-598).
T6 construct: Whole encoded precursor
Kind of assay: FACS on HEK293T-hMSLN-B8 cells.
Procedure: as §3
Regarding B4, a half-maximal effect (EC50) was put at 6.07 nM and the “Maximum mean fluorescence intensity” value is 102000.

Take B5: the EC50 was found to be 0.76 nM and the “Maximum mean fluorescence intensity” value was 240000.

For B6, the EC50 was 1.39 nM and the “Maximum mean fluorescence intensity” value worked out at 231000.

Turning to B7, the EC50 came out at 0.41 nM and the “Maximum mean fluorescence intensity” value is 202000.

A further assay has as its target T1, monkey MSLN full-length protein (NCBI: …). Put plainly: FACS on HEK293T-monkey MSLN cells.
Procedure: as §3
As for B4, the 50% effective concentration (EC50) turned out to be 3.42 nM and the “Maximum mean fluorescence intensity” value is 41100.

Regarding B5, the “Maximum mean fluorescence intensity” value was found to be 365 and the binding result is “no binding”.

Consider B6, for which the “Maximum mean fluorescence intensity” value was found to be 131 and the binding result is “no binding”.

For the molecule B7, the “Maximum mean fluorescence intensity” value was 202 and the binding result is given as “no binding”.

In the next assay the target is T7, human MSLN protein endogenously expressed on OVCAR3 tumor cells (human, UniProt Q13421 296-598).
T7 construct: whole, on cells; Endogenous target on OVCAR3 cells; kept apart from the recombinant full-length construct; also called mesothelin
Put plainly: FACS on OVCAR3 cells.
T7 sequence (Q13421 other isoform, or with tags, fused parts or gaps): as the sequence (Q13421 other isoform, or with tags, fused parts or gaps limits assumed) above, with P14R counted along it
Procedure: as §3
Take B4: the “Maximum mean fluorescence intensity” value amounted to 3360.

Take B5: the EC50 came out at 0.82 nM and the “Maximum mean fluorescence intensity” value was determined as 3510.

With B6, a half-maximal response (EC50) required 4.13 nM and the “Maximum mean fluorescence intensity” value was 6810.

Turning to B7, a half-maximal effect (EC50) was put at 0.31 nM and the “Maximum mean fluorescence intensity” value stood at 2600.

A further assay addresses T2, human MSLN-FL-his protein. Put plainly: competitive ELISA; row F8-8.22.
Procedure: as §1, §2
With B1, the competition rate stood at 94%.

In the case of B2, the competition rate is 96%.

As for B3, the competition rate stood at 24.9%.
